Measurements as given in publication PMC8058561, “Activity-dependent conformational transitions of the insulin receptor–related receptor” (The Journal of Biological Chemistry, 2021).

Target: the molecule itself
Experiment: atomic force microscopy; purified full-length IRR in DDM micelles deposited on mica; tapping mode in 150 mM NaCl, 20 mM sodium phosphate, 5% glycerol, pH 7.0 or pH 9.0; single receptor-micelle complexes sorted by the shape of the ectodomain

B1: insulin receptor-related receptor (full-length human IRR with a C-terminal 6xHIS tag) (receptor)
chain 1: VEVCPSLDIRSEVAELRQLENCSVVEGHLQILLMFTATGEDFRGLSFPRLTQVTDYLLLFRVYGLESLRDLFPNLAVIRGTRLFLGYALVIFEMPHLRDVALPALGAVLRGAVRVEKNQELCHLSTIDWGLLQPAPGANHIVGNKLGEECADVCPGVLGAAGEPCAKTTFSGHTDYRCWTSSHCQRVCPCPHGMACTARGECCHTECLGGCSQPEDPRACVACRHLYFQGACLWACPPGTYQYESWRCVTAERCASLHSVPGRASTFGIHQGSCLAQCPSGFTRNSSSIFCHKCEGLCPKECKVGTKTIDSIQAAQDLVGCTHVEGSLILNLRQGYNLEPQLQHSLGLVETITGFLKIKHSFALVSLGFFKNLKLIRGDAMVDGNYTLYVLDNQNLQQLGSWVAAGLTIPVGKIYFAFNPRLCLEHIYRLEEVTGTRGRQNKAEINPRTNGDRAACQTRTLRFVSNVTEADRILLRWERYEPLEARDLLSFIVYYKESPFQNATEHVGPDACGTQSWNLLDVELPLSRTQEPGVTLASLKPWTQYAVFVRAITLTTEEDSPHQGAQSPIVYLRTLPAAPTVPQDVISTSNSSSHLLVRWKPPTQRNGNLTYYLVLWQRLAEDGDLYLNDYCHRGLRLPTSNNDPRFDGEDGDPEAEMESDCCPCQHPPPGQVLPPLEAQEASFQKKFENFLHNAITIPISPWKVTSINKSPQRDSG
chain 2: not shown
notes: alpha subunit (about 100 kDa) of human insulin receptor-related receptor, cut from the single-chain precursor (about 170 kDa); beta subunit (about 70 kDa) of human insulin receptor-related receptor, cut from the single-chain precursor (about 170 kDa); holds the transmembrane segment and the tyrosine kinase domain; Some uncleaved proreceptor (170 kDa) was also seen on the blot; The receptor was …
  binding result: binds
